{
  "source": "the FLAb antibody collection",
  "note": "Values joined by “and” are separate entries in the source; they are usually repeats but may differ in a detail not shown here. Equal entries are not always repeated.",
  "data": [
    {"test": "patients with anti-drug antibodies; higher = more immunogenic", "values": [
      {"protein": "unnamed (protein) chain 1: EVQLVQSGAEVKKPGESLKISCKGSGYSFTDYYMKWARQMPGKGLEWMGDIIPSNGATFYNQKFKGQVTISADKSISTTYLQWSSLKASDTAMYYCARSHLLRASWFAYWGQGTMVTVSS chain 2: DIVMTQSPDSLAVSLGERATINCESSQSLLNSGNQKNYLTWYQQKPGQPPKPLIYWASTRESGVPDRFSGSGSGTDFTLTISSLQAEDVAVYYCQNDYSYPYTFGQGTKLEIK", "patients with anti-drug antibodies": "17.5%"},
      {"protein": "unnamed (protein) chain 1: QVQLVQSGAEVKKPGASVKVSCKASGYIFITYWMTWVRQAPGQGLEWMGQIFPASGSADYNEKFEGRVTMTTDTSTSTAYMELRSLRSDDTAVYYCARGGGGFAYWGQGTLVTVSS chain 2: DIQMTQSPSSLSASVGDRVTITCRTSENIYSYLAWYQQKPGKAPKLLIYNAKTLAEGVPSRFSGSGSGTDFTLTISSLQPEDFATYYCQHHYGIPFTFGQGTKVEIK", "patients with anti-drug antibodies": "6.5%"},
      {"protein": "unnamed (protein) chain 1: EVQLVESGGGLVQPGGSLRLSCAASGFTFSSSGMSWVRQAPGKGLEWVSVIASSGSNTYYADSVKGRFTISRDNSKNTLYLQMNSLRAEDTAVYYCARSIFYTTWGQGTLVTVSS chain 2: not shown", "patients with anti-drug antibodies": "26%"},
      {"protein": "unnamed (protein) chain 1: QVQLVESGGGVVQPGRSLRLSCAASGFTFSSYGMHWVRQAPGKGLEWVAVIWYDGSNKYYADSVKGRFTISRDNSKNTLYLQMNSLRAEDTAVYYCARDPRGATLYYYYYGMDVWGQGTTVTVSS chain 2: DIQMTQSPSSLSASVGDRVTITCRASQSINSYLDWYQQKPGKAPKLLIYAASSLQSGVPSRFSGSGSGTDFTLTISSLQPEDFATYYCQQYYSTPFTFGPGTKVEIK", "patients with anti-drug antibodies": "2% and 0%"},
      {"protein": "unnamed (protein) chain 1: QVQLQQSGAELVKPGASVKLSCKASGYTFRSYDINWVRQRPEQGLEWIGWIFPGDGSTKYNEKFKGKATLTTDKSSSTAYMQLSRLTSEDSAVYFCARWTVVGPGYFDVWGAGTTVTVSS chain 2: QIVLTQSPAIMSASPGEKVTITCSASSSVSYMNWFQQKPGTSPKLWIYSTSNLASGVPARFSGSGSGTSYSLTISRMEAEDAATYYCQQRSSYPNTFGGGTKLEIK", "patients with anti-drug antibodies": "28%"},
      {"protein": "unnamed (protein) chain 1: QVQLVQSGAEVKKPGSSVKVSCKASGYTFTDYEMHWVRQAPGQGLEWIGAVAPETGGTAYNQKFKGRATITADKSTSTAYMELSSLRSEDTAVYYCTSTVVPFAYWGQGTLVTVSS chain 2: QIQLTQSPSSLSASVGDRVTITCSASSSVSYMYWYQQKPGKAPKAWIYRTSNLASGVPSRFSGSGSGTDYTLTISSLQPEDFATYYCQQYQSLPLTFGGGTKVEIK", "patients with anti-drug antibodies": "0%"},
      {"protein": "unnamed (protein) chain 1: EVQLVESGGGLVQPGGSLRLSCAASGFTFSSHDMHWVRQATGKGLEWVSGIGTAGDTYYPDSVKGRFTISRENAKNSLYLQMNSLRAGDTAVYYCARDRYSPTGHYYGMDVWGQGTTVTVSS chain 2: DIQMTQSPSTLSASVGDRVTITCRASQSISSWLAWYQQKPGKAPKLLIYKASSLESGVPSRFSGSGSGTEFTLTISSLQPDDFATYYCKQYADYWTFGQGTKVEIK", "patients with anti-drug antibodies": "3%"},
      {"protein": "unnamed (protein) chain 1: EVQLVESGGGLVQPGGSLRLSCAASGFTFSSYVMSWVRQAPGKGLEWVATISSGGSYTYYPDSVKGRFTISRDNAKNTLYLQMNSLRAEDTAVYYCARRGDSMITTDYWGQGTLVTVSS chain 2: DIQMTQSPSSLSASVGDRVTITCKASQDVGTAVAWYQQKPGKAPKLLIYWASTRHTGVPSRFSGSGSGTDFTLTISSLQPEDFATYYCQQYSSYRTFGQGTKVEIK", "patients with anti-drug antibodies": "0%"},
      {"protein": "unnamed (protein) chain 1: QVQLQQWGAGLLKPSETLSLTCAVYGGSFSGYYWSWIRQPPGKGLEWIGEINHSGSTNYNPSLKSRVTISVDTSKNQFSLKLSSVTAADTAVYYCARGYYDILTGYYYYFDYWGQGTLVTVSS chain 2: EIVLTQSPATLSLSPGERATLSCRASQSVSRYLAWYQQKPGQAPRLLIYDASNRATGIPARFSGSGSGTDSTLTISSLEPEDFAVYYCQQRSNWPRTFGQGTKVEIK", "patients with anti-drug antibodies": "4.4%"},
      {"protein": "unnamed (protein) chain 1: QMQLVESGGGVVQPGRSLRLSCAASGFTFRTYGMHWVRQAPGKGLEWVAVIWYDGSNKHYADSVKGRFTITRDNSKNTLNLQMNSLRAEDTAVYYCARAPQWELVHEAFDIWGQGTMVTVSS chain 2: SYVLTQPPSVSVAPGQTARITCGGNNLGSKSVHWYQQKPGQAPVLVVYDDSDRPSWIPERFSGSNSGNTATLTISRGEAGDEADYYCQVWDSSSDHVVFGGGTKLTVL", "patients with anti-drug antibodies": "2.1%"}
    ]}
  ]
}
